Reference: the supplement of paper PMC9170038

Tested on: K4 kissing-loop RNA reporter
Test: apparent KD of K4 kissing-loop reporter; higher = weaker reporter binding
Conditions: Eterna round: R107
Experimental: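 RNA-MaP round R107: designed RNA switches with theophylline, tryptophan, arginine or FMN aptamers are transcribed on-chip within common flanks. They are titrated with a labelled K4 kissing-loop RNA reporter in RNA-MaP buffer (100 mM Tris pH 7.5, 80 mM KCl, 4 mM MgCl2), without ligand or with the indicated ligand. Median apparent KD per design.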

[1] = input ligand: theophylline 20 uM
[2] = input ligand: tryptophan 2.4 mM
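Note: bound reporter read as fluorescence of individual clusters on recovered sequencing chips by microscopy, with normalized cluster intensities fitted with a binding model.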

Sequence	apparent KD of K4 kissing-loop reporter (input ligand: FMN 200 uM)	apparent KD of K4 kissing-loop reporter (input ligand: arginine 13.2 mM)	apparent KD of K4 kissing-loop reporter (input ligand: none)	apparent KD of K4 kissing-loop reporter [1]	apparent KD of K4 kissing-loop reporter [2]
UCGCCGCUCACGGCCGCCACUAAGCCCAAGACCAGAGAGUGAUGUUCUAUCCACGUUUCAAUUUUUAGGACCGGGUGAAAGGCGA [theeternabot_sameState_KL_Trp_B_14]	779 nM	411 nM	729 nM	625 nM	618 nM
UCGGCGGAGUGAUGUUCCUAUGUCCAAGAUACCAGUCUAUGAACGGACCCUUGGCAGCUUCCAUUAGGUUACUAUUUAGACUCAU [theeternabot_exclusion_KL_Theo_A_10]	190 nM	227 nM	215 nM	248 nM	166 nM
UCUCCAAAGUCGGCCGCCACUCCGGGCCCUAUAAAUGGGCGCAGUGAUGUUGCGGCUAGGCCUCUGAGGACCGGGACUUUGUAGA [Estiorquin]	75.5 nM	55.7 nM	31.3 nM	129 nM	164 nM
UCUGAAUUAUCUGAUACCAGACUUUUUGUAUUUAUUAAAACUAGUGAUGUUAGUUUAUCUGUCCCUUGGCAGCAGUUUCUACAGA [JR_Nu_ExcTheophyB_Sub022]	79.9 nM	95.4 nM	83.8 nM	90.8 nM	72.5 nM
UCUGGAGUAUAUGAUACCAGCAGUGAGAGACAGGAAGUAUAGUGAUGUUAUAUGAGAGAAUGCCCUUGGCAGCGUGUGCGGUGGC [SSTheophylB.Q]	118 nM	77.8 nM	61.6 nM	81.4 nM	58.3 nM
UGACAUUGCUCAGAUACCAGACCUGAGGAACACCCAGGUGCCAAAACGUACUAAAUAAAGGUCCCUUGGCAGCUGAGCAAUGUCU [TheoBX 13]	45.7 nM	35.1 nM	35.4 nM	77.6 nM	59.7 nM
UGACUACAAGGAAAAUAAUCCUAGUGAUGUUAGGAUAUGCUGAUAAGCAGAAGGAACUGAGAUCGAAAGAUCUCAAAUGUAGUCU [FmnAX 27 Mat Inspired #SwitchBubble #StaticStem #K4Early]	121 nM	92 nM	87.2 nM	102 nM	93.5 nM
UGACUACAUAAGGAUUAAUCCUAGUGAUGUUAGGAUAUGCUGAUAAGCAGAAGGAACGGAGAUCGAAGGAUCUCAUAUGUAGUCU [whbob_Ex_FMNA__2th195]	457 nM	135 nM	164 nM	138 nM	164 nM
UGACUGGACUGAAGGAGCGCGCGAGACAAAGUCUCGAACUGCUAGUGAUGUUAGCGAAUAACGCAGGUAGGUCGCAGUCUAGUCU [ArgBS 14 #SwitchBubble #StaticStem]	177 nM	146 nM	175 nM	155 nM	156 nM
UGACUGGACUGAAGGAGCGGGCGAGACAAAGUCUCGAACUCGUAGUGAUGUUAUGAAAUAACCCAGGUAGGUCGCAGUCUAGUCU	1130 nM	684 nM	892 nM	868 nM	789 nM
UGACUGGAUGGAAGGAGCGCUAAACUCCUAGUGAUGUUAGGGACAUGAGGCACAGCCUUGAAGCAGGUAGGUCGCCAUCUAGUCU [FiskerMod 28 - Jieux - Same State - Arginine B]	197 nM	135 nM	176 nM	166 nM	174 nM
UGACUGGAUGGAAGGAGCGCUAAACUCCUAGUGAUGUUAGGGACAUGAGGCAUAGCCUUGAAGCAGGUAGGUCGCCAUCUAGUCU [FiskerMod 29 - Jieux - Same State - Arginine B]	193 nM	132 nM	184 nM	189 nM	144 nM
UGAGGGAUCUCGGCCGCCACUCGUGGGAAAUGGGCCUCAGGGAUAUAGUGAUGUUAUGUAAAGAAGAGGACCGGGAGAAGGAAGG [ExTryptoB.Dh]	230 nM	229 nM	320 nM	386 nM	203 nM
UGAUACCAGACGGCCGCCACUGCACCAGUCAAUGACUGAGUGCGGUAGUGCUCAGUGAUGUUGAGUAGGACCGGGUCUGGUAUCU [Mod of Eli's TrypBX 8 v3]	148 nM	124 nM	131 nM	130 nM	130 nM
UGAUACCAGACUGAUACCAGCGAGUGAUGUUUGUUGAUCAUAAGCAGUCAAAGACUGCUUUGCCCUUGGCAGCAGUCUGGUAUCU [#11 K4 Theophylline B Exclusion]	871 nM	565 nM	838 nM	334 nM	600 nM
UGAUACCAGACUGAUACCAGCUAGUGAUGUUAGCUGAAAUCAGGGUCAAAGACCCUGUCUAGCCCUUGGCAGCAGUCUGGUAUCU [TheoBX 9 #SwitchBubble #StaticStem]	107 nM	93.8 nM	98.3 nM	133 nM	91.5 nM
UGAUACCAGACUGAUACCAGCUAGUGAUGUUAGCUGAUAAACAAACAGGCAAAGCCUGCUAGCCCUUGGCAGCAGUCUGGUAUCU [TheoBX 12 #SwitchBubble #StaticStem]	206 nM	180 nM	193 nM	359 nM	202 nM
UGAUAGGACAGAAGGAGCGGAAGUGAUGUUUCCAAAAGAUAUGAUCGACAAAGUCGAUUUUUCCAGGUAGGUCGCUGUCCUAUCU [KL-XARG-B19]	60.5 nM	84.9 nM	66.8 nM	100 nM	66.6 nM
UGAUAGGACAGAAGGAGCGGAAGUGAUGUUUCCAAAAGGAUAAGGUGUCAAAAGACACCCUUCCAGGUAGGUCGCUGUCCUAUCU [ArgBX 13 #Palindromic #SwitchBubble #StaticStem]	148 nM	165 nM	134 nM	145 nM	136 nM
UGAUAGGACAGAAGGAGCGGGAGUGAUGUUCCCAAAUGGAUAGGUCGACAAAGUCGACCCUCCCAGGUAGGUCGCUGUCCUAUCU [ArgBX 7 #SwitchBubble #StaticStem]	206 nM	246 nM	219 nM	247 nM	187 nM
UGAUAGGACAGAAGGAGCGGUAGUGAUGUUACCAAAAGAAUAAGGUGUCAAAAGACACCCUGCCAGGUAGGUCGCUGUCCUAUCU	97.4 nM	111 nM	90.9 nM	123 nM	86 nM
UGAUAGGACAGAAGGAGCGGUAGUGAUGUUGCCAAAAGGAUAAGGUGUCAAAAGACACCCUGCCAGGUAGGUCGCUGUCCUAUCU	126 nM	136 nM	123 nM	110 nM	99.8 nM

Sequence	apparent KD of K4 kissing-loop reporter (input ligand: FMN 200 uM)	apparent KD of K4 kissing-loop reporter (input ligand: arginine 13.2 mM)	apparent KD of K4 kissing-loop reporter (input ligand: none)	apparent KD of K4 kissing-loop reporter [1]	apparent KD of K4 kissing-loop reporter [2]
UGAUUGGCGAAAGUAGUGAUGUUACGAAUAUAGGAUAUUAGAGGAAUAAGAAGGAUAAAGGAGAAAUAGGUAAAUUGUUGGUUGG [whbob_SS_FMNA__2th169]	110 nM	59.8 nM	104 nM	128 nM	93.4 nM
UGAUUUAACUGAAGGAGCGGCAAUUGAUAAGUAAAUAUAGUGAUGUUAUAUAAGAUAGAGAGCCAGGUAGGUCGCAGAGGUAUGA [ExArgB.L]	193 nM	159 nM	158 nM	150 nM	139 nM
UGCAGUGAUGUUGCGAGUGGCAGAUACGAAGGAGCGUGGUGAGACACAGGUAGGUCGCGUAUCGAAAUUGCUGUCACUAAAAUGC [#8]	385 nM	411 nM	501 nM	425 nM	460 nM
UGCAGUGAUGUUGCUAUUUUUCUUGAUUAACGAGGACCGGUACGGCCGCCACUCGAUUUCUCUCUAAUCCAGUAUGUUGUUUGAU [whbob_EX_Tryp_A_t4]	97.9 nM	139 nM	112 nM	142 nM	81.1 nM
UGCGCUAUGUCCUAAAACGUCCUCCGGGAUACCAGAGUCUUUUUAUUCCCUUGGCAGCUUGAGUGAUGUUUGAUGCCGUUCUUGU [srrevmullin]	364 nM	215 nM	366 nM	287 nM	315 nM
UGCGCUAUGUCCUAAAACGUCCUCCGGGAUACCAGUGUCUUUUUAUACCCUUGGCAGCUUGAGUGAUGUUUGAUGCCGUUCUUGU [izzxmullin]	432 nM	225 nM	310 nM	386 nM	304 nM
UGCUUUAGAAUACAAGGUAUUUACACUGAUACCAGUCAGUUAAAUGACCCUUGGCAGCAGUGUCAGUGAUGUUGACACAACACAU [Theo A Ex t4]	183 nM	173 nM	180 nM	157 nM	164 nM
UGGAGUUGACGAAAAGUCAACUCCUGAGAAGGAGCGGACGAAAGUCCAGGUAGGUCGCUCACUACCAGUGAUGUUGGUACUUAAA [#OpenEnded 4]	152 nM	235 nM	198 nM	228 nM	192 nM
UGGAGUUGACGAAAAGUCAACUCCUGAGAAGGAGCGGACGAAAGUCCAGGUAGGUCGCUCACUACCAGUGAUGUUGGUACUUGAA	276 nM	293 nM	259 nM	428 nM	185 nM
UGGAUAUAGUGAUGUUAUAUAGAGAGUGAUACCAGUUUAGAGAAGAACCCUUGGCAGCAUAAAGAAGUAUCAUUAGAGAAGAAUG [ExTheophyl.Ao]	229 nM	216 nM	282 nM	224 nM	176 nM
UGGGCUGCCUGAGGAUAUAGAGACGAGUGAUGUUCGUGGAUAAGAGCCAGUGAUGUUGGGUUAUUUCUAGAAGGCGGGCGAACUU [Exclusion FMN B GF8]	105 nM	104 nM	120 nM	129 nM	115 nM
UGGUUUAGAAGUGAUGUUUCGAUAAGUGAUACCAGACAAAAGAAAGUCCCUUGGCAGCACAAUGAUGCCAAGGAAACGGCAUGAU [Same State Theophylline A GF 1]	118 nM	146 nM	115 nM	127 nM	98.9 nM
UGUACCGAGUCAGGAUAUGGCGUCGAAAGACGAAUGCUAGUGAUGUUAGGGAUCUGCGAAAGCAGUUCAGAAGGGACUUGGUACU [FmnBS 26 G36+U67]	275 nM	292 nM	404 nM	379 nM	338 nM
UGUACCGAGUGAGGAUAUGUCGUCGAAAGACGAAAUGGAGUGAUGUUCCUUAAACUGCGAAAGCAGACAGAAGGCACUUGGUACU [FmnBS 29 G11+C75]	129 nM	171 nM	192 nM	170 nM	168 nM
UGUACCGAGUGAGGAUAUGUCGUCGAAAGACGAAAUGGAGUGAUGUUCCUUAAACUGCGAAAGCAGACAGAAGGUACUUGGUACU [FmnBS 29 G11+U75]	144 nM	298 nM	302 nM	312 nM	275 nM
UGUAUGUGAUUUGAUACCAGACCAGCUGGUGGAAACUGAGUGAUGUUCAGUUAGGUUUGGGUCCCUUGGCAGCAAAUCGCAUACU [KL-SSTheoB28]	152 nM	119 nM	127 nM	134 nM	138 nM
UGUAUGUGAUUUGAUACCAGACCAGCUGGUGGUACCUGAGUGAUGUUCGGGAUGGUCUGGGUCCCUUGGCAGCAAAUCGCAUACU [KL-SSTheoB21]	295 nM	175 nM	254 nM	212 nM	212 nM
UGUAUGUGAUUUGAUACCAGACCAGCUGGUGGUGUAUGAGUGAUGUUCAUGCUGGUUUGGGUCCCUUGGCAGCAAAUCGCAUACU [KL-SSTheoB29]	10.6 nM	6.48 nM	8.46 nM	7.6 nM	8.89 nM
UGUCAUUGGUCGGAUACCAGUUGAUGACGAAUACGUCAACUGGAGUGAUGUUCCUAAAACAACCCUUGGCAGCCGACCGAUGACU [MAT - Same State Theophlline B - Mod of Eli - D1]	937 nM	641 nM	852 nM	666 nM	761 nM
UGUCAUUGGUCGGCCGCCACUACAAGGUCAAAGACCAAAGAGUGAUGUUCUUAGACGAAAGUCAGUAGGACCGGGACCGAUGACU [TrypBS 8 #SwitchBubble #K4Middle]	1050 nM	707 nM	1320 nM	674 nM	274 nM
UGUCAUUGGUCGGCCGCCACUAGAAGGUCAAAGACCAUAGAGUGAUGUUCUGAGACGAAAGUCACUAGGACCGGGACCGAUGACU [TrypBS 6 #SwitchBubble #K4Middle]	462 nM	385 nM	1140 nM	440 nM	786 nM
